In assay [1] the target is T1, human CEA expressed on tumor cells (human, UniProt P06731 35-702).
T1 construct: whole, on cells; also called Carcinoembryonic antigen; Carcinoembryonic antigen-related cell adhesion molecule 5
T1 sequence (looked up): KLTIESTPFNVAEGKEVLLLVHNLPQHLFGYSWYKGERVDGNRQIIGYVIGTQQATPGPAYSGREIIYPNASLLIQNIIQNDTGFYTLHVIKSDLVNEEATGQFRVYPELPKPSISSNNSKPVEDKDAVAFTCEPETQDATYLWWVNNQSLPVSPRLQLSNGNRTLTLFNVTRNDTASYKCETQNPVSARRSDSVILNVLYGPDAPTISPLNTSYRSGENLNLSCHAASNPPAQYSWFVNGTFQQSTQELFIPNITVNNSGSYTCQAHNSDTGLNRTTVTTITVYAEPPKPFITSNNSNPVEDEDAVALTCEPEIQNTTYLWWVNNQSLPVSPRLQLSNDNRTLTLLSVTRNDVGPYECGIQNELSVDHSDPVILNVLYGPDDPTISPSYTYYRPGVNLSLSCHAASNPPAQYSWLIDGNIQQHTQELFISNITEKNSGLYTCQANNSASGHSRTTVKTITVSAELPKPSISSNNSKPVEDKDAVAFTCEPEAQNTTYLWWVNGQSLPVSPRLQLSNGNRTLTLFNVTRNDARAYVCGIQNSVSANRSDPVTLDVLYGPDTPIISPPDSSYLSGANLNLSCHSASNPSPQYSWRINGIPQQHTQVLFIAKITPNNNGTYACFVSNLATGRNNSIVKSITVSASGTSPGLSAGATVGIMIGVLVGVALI
Put plainly: flow cytometry on LS-174T cells. How it is done: Binding of the different bispecific constructs to CD3 on Jurkat cells (ATCC #TIB-152), and the respective tumor antigen on target cells, was determined by FACS. Briefly, cells were harvested, counted and checked for viability. 0.15 - 0.2 million cells per well (in PBS containing 0.1% BSA; 90 µl) were plated in a round-bottom 96-well plate and incubated with the indicated concentration of the bispecific constructs and corresponding IgG controls (10 µl) for 30 min at 4° C. For a better comparison, all constructs and IgG controls were normalized to same molarity. […] Bound constructs were detected using a FACSCantoII (Software FACS Diva). The “(scFv)₂” molecule was detected using a FITC-conjugated anti-His antibody (Lucerna, #RHIS-45F-Z). […] Unless otherwise indicated, cells were fixed with 100 µl/well fixation buffer (BD #554655) for 15 min at 4° C. in the dark, centrifuged for 6 min at 400 × g and kept in 200 µl/well PBS containing 0.1% BSA until the samples were measured with FACS CantoII. EC50 values were calculated using the GraphPad Prism software.
(§1) As a control, the equivalent maximum concentration of the corresponding IgGs and the background staining due to the labeled 2ndary antibody (goat anti-human FITC-conjugated AffiniPure F(ab′)2 Fragment, Fcγ Fragment-specific, Jackson Immuno Research Lab # 109-096-098) were assessed as well.
(Flow cytometry measures light scatter and fluorescence of single cells or particles in a stream.)

Assay [2] concerns the target T2, human CD3 expressed on Jurkat cells (human, UniProt P07766 23-207).
T2 construct: CD3 complex on Jurkat cells (ATCC TIB-152); also called huCD3
The experiment in a line: flow cytometry on Jurkat cells. How it is done:
Binding of the different bispecific constructs to CD3 on Jurkat cells (ATCC #TIB-152), and the respective tumor antigen on target cells, was determined by FACS. Briefly, cells were harvested, counted and checked for viability. 0.15 - 0.2 million cells per well (in PBS containing 0.1% BSA; 90 µl) were plated in a round-bottom 96-well plate and incubated with the indicated concentration of the bispecific constructs and corresponding IgG controls (10 µl) for 30 min at 4° C. For a better comparison, all constructs and IgG controls were normalized to same molarity. After the incubation, cells were centrifuged (5 min, 350 × g), washed with 150 µl PBS containing 0.1% BSA, resuspended and incubated for further 30 min at 4° C. with 12 µl/well of a FITC-or PE-conjugated secondary antibody. Bound constructs were detected using a FACSCantoII (Software FACS Diva). The “(scFv)₂” molecule was detected using a FITC-conjugated anti-His antibody (Lucerna, #RHIS-45F-Z). For all other molecules, a FITC- or PE-conjugated AffiniPure F(ab′)2 Fragment goat anti-human IgG Fcγ Fragment Specific (Jackson Immuno Research Lab # 109-096-098 / working solution 1:20, or #109-116-170 / working solution 1:80, respectively) was used. Cells were washed by addition of 120 µl/well PBS containing 0.1% BSA and centrifugation at 350 × g for 5 min. A second washing step was performed with 150 µl/well PBS containing 0.1% BSA. Unless otherwise indicated, cells were fixed with 100 µl/well fixation buffer (BD #554655) for 15 min at 4° C. in the dark, centrifuged for 6 min at 400 × g and kept in 200 µl/well PBS containing 0.1% BSA until the samples were measured with FACS CantoII. EC50 values were calculated using the GraphPad Prism software.
as §1

Assay [3] concerns the target T1, human CEA expressed on tumor cells. Put plainly: cell-based or functional assay.
The target of assay [4] is T3, Human EGFR (immobilized on CM5 sensor chip) (human, UniProt P00533 25-645, limits assumed).
T3 construct: 8000 RU immobilized by amine coupling; also called Epidermal Growth Factor Receptor
Put plainly: SPR; construct (200 nM) captured on immobilized human EGFR, then CD3 fusion injected (FIG. 18C). On the procedure: (§2) Analysis of simultaneous binding of the T-cell bispecific constructs to the tumor antigen and the human CD3ε was performed by direct coupling of 1650 resonance units (RU) of biotinylated D3 domain of MCSP on a sensor chip SA using the standard coupling procedure. Human EGFR was immobilized using standard amino coupling procedure. 8000 RU were immobilized on a CM5 sensor chip at pH 5.5.
(§3) Different T-cell bispecific constructs were captured for 60 s at 200 nM. Human CD3γ(G₄S)₅CD3ε-AcTev-Fc(knob)-Avi/Fc(hole) was subsequently passed at a concentration of 2000 nM and a flow rate of 40 µl/min for 60 s. Bulk refractive index differences were corrected for by subtracting the response obtained on a reference flow cell where the recombinant CD3ε was flown over a surface with immobilized D3 domain of MCSP or EGFR without captured T-cell bispecific constructs.
For orientation: SPR reads the build-up and loss of mass on a sensor chip optically.

For assay [5], the target named is T3, Human EGFR (immobilized on CM5 sensor …). The experiment in a line: SPR; construct (200 nM) captured on immobilized human EGFR, then CD3 fusion injected (FIG. 18A). How it is done: as §2, §3
For assay [6] the target is unchanged. The experiment in a line: SPR; construct (200 nM) captured on immobilized human EGFR, then CD3 fusion injected (FIG. 18B). How it is done:
as §2, §3

For assay [7] the target is unchanged. Put plainly: SPR; construct (200 nM) captured on immobilized human EGFR, then CD3 fusion injected (FIG. 18D). On the procedure:
as §2, §3

The EC50 is the concentration needed to bring the measured effect to its halfway point. Higher therefore signals lower potency in that assay.

T2 sequence (P07766 23-207 limits assumed): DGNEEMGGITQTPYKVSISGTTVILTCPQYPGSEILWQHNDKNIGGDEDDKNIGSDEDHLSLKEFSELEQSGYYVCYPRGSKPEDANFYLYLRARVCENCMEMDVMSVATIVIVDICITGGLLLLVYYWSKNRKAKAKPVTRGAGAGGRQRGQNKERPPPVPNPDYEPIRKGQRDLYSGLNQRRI

B1: CEA/CD3 “2+1 IgG Crossfab, inverted (CL/CH1)”; CL/CH1 exchange (CH1A1A/V9) (bispecific antibody)
heavy 1: not shown
heavy 2: QVQLVQSGAEVKKPGASVKVSCKASGYTFTEFGMNWVRQAPGQGLEWMGWINTKTGEATYVEEFKGRVTFTTDTSTSTAYMELRSLRSDDTAVYYCARWDFAYYVEAMDYWGQGTTVTVSSASTKGPSVFPLAPSSKSTSGGTAALGCLVKDYFPEPVTVSWNSGALTSGVHTFPAVLQSSGLYSLSSVVTVPSSSLGTQTYICNVNHKPSNTKVDKKVEPKSCDKTHTCPPCPAPEAAGGPSVFLFPPKPKDTLMISRTPEVTCVVVDVSHEDPEVKFNWYVDGVEVHNAKTKPREEQYNSTYRVVSVLTVLHQDWLNGKEYKCKVSNKALGAPIEKTISKAKGQPREPQVCTLPPSRDELTKNQVSLSCAVKGFYPSDIAVEWESNGQPENNYKTTPPVLDSDGSFFLVSKLTVDKSRWQQGNVFSCSVMHEALHNHYTQKSLSLSPGK
light 1: DIQMTQSPSSLSASVGDRVTITCKASAAVGTYVAWYQQKPGKAPKLLIYSASYRKRGVPSRFSGSGSGTDFTLTISSLQPEDFATYYCHQYYTYPLFTFGQGTKLEIKRTVAAPSVFIFPPSDEQLKSGTASVVCLLNNFYPREAKVQWKVDNALQSGNSQESVTEQDSKDSTYSLSSTLTLSKADYEKHKVYACEVTHQGLSSPVTKSFNRGEC
light 2: DIQMTQSPSSLSASVGDRVTITCRASQDIRNYLNWYQQKPGKAPKLLIYYTSRLESGVPSRFSGSGSGTDYTLTISSLQPEDFATYYCQQGNTLPWTFGQGTKVEIKSSASTKGPSVFPLAPSSKSTSGGTAALGCLVKDYFPEPVTVSWNSGALTSGVHTFPAVLQSSGLYSLSSVVTVPSSSLGTQTYICNVNHKPSNTKVDKKVEPKSC
notes: 66 is the DNA of 65; also called CL/CH1-exchange construct
As for B1, the EC50 in assay [1] worked out at 6.7 nM. Also, a half-maximal response in assay [2] (EC50) required 3.9 nM. Besides, in assay [3], the “EC50 of killing (LDH release) of LS-174T cells, human PBMCs, E:T 10:1, 28 h” value was found to be 0.673 nM and the “EC50 of killing (LDH release) of MKN-45 cells, human PBMCs, E:T 10:1, 28 h” value was 0.115 nM.

B2: CEA/CD3 “2+1 IgG Crossfab, inverted (VL/VH)”; VL/VH exchange (CH1A1A/V9) (bispecific antibody)
heavy 1: not shown
heavy 2: B1 heavy 2
light 1: B1 light 1
light 2: EVQLVESGGGLVQPGGSLRLSCAASGYSFTGYTMNWVRQAPGKGLEWVALINPYKGVSTYNQKFKDRFTISVDKSKNTAYLQMNSLRAEDTAVYYCARSGYYGDSDWYFDVWGQGTLVTVSSASVAAPSVFIFPPSDEQLKSGTASVVCLLNNFYPREAKVQWKVDNALQSGNSQESVTEQDSKDSTYSLSSTLTLSKADYEKHKVYACEVTHQGLSSPVTKSFNRGEC
notes: also called VL/VH-exchange construct
B2 had an EC50 in assay [1] of 9.3 nM. The same molecule came in with an EC50 in assay [2] of 4.6 nM. In assay [3], the “EC50 of killing (LDH release) of LS-174T cells, human PBMCs, E:T 10:1, 28 h” value amounted to 0.955 nM and the “EC50 of killing (LDH release) of MKN-45 cells, human PBMCs, E:T 10:1, 28 h” value turned out to be 0.243 nM.

B3: “1+1 IgG scFab, one armed inverted” (anti-EGFR/anti-huCD3) (bispecific antibody)
heavy 1: not shown
heavy 2: EVQLVESGGGLVQPGGSLRLSCAASGYSFTGYTMNWVRQAPGKGLEWVALINPYKGVSTYNQKFKDRFTISVDKSKNTAYLQMNSLRAEDTAVYYCARSGYYGDSDWYFDVWGQGTLVTVSSASTKGPSVFPLAPSSKSTSGGTAALGCLVKDYFPEPVTVSWNSGALTSGVHTFPAVLQSSGLYSLSSVVTVPSSSLGTQTYICNVNHKPSNTKVDKKVEPKSCDKTHTCPPCPAPEAAGGPSVFLFPPKPKDTLMISRTPEVTCVVVDVSHEDPEVKFNWYVDGVEVHNAKTKPREEQYNSTYRVVSVLTVLHQDWLNGKEYKCKVSNKALGAPIEKTISKAKGQPREPQVCTLPPSRDELTKNQVSLSCAVKGFYPSDIAVEWESNGQPENNYKTTPPVLDSDGSFFLVSKLTVDKSRWQQGNVFSCSVMHEALHNHYTQKSLSLSPGK
light: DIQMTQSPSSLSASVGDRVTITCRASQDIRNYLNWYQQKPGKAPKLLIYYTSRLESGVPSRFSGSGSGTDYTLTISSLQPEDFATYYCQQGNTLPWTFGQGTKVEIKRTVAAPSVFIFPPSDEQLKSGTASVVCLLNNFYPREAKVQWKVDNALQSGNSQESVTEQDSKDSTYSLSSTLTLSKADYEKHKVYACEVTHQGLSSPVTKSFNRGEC
Take B3: the binding result in assay [4] was “binds”.

B4: “2+1 IgG scFab, P329G LALA” (anti-EGFR/anti-huCD3) (bispecific antibody)
heavy 1: not shown
heavy 2: QVQLVQSGAEVKKPGSSVKVSCKASGFTFTDYKIHWVRQAPGQGLEWMGYFNPNSGYSTYAQKFQGRVTITADKSTSTAYMELSSLRSEDTAVYYCARLSPGGYYVMDAWGQGTTVTVSSASTKGPSVFPLAPSSKSTSGGTAALGCLVKDYFPEPVTVSWNSGALTSGVHTFPAVLQSSGLYSLSSVVTVPSSSLGTQTYICNVNHKPSNTKVDKKVEPKSCDKTHTCPPCPAPEAAGGPSVFLFPPKPKDTLMISRTPEVTCVVVDVSHEDPEVKFNWYVDGVEVHNAKTKPREEQYNSTYRVVSVLTVLHQDWLNGKEYKCKVSNKALGAPIEKTISKAKGQPREPQVCTLPPSRDELTKNQVSLSCAVKGFYPSDIAVEWESNGQPENNYKTTPPVLDSDGSFFLVSKLTVDKSRWQQGNVFSCSVMHEALHNHYTQKSLSLSPGK
light: DIQMTQSPSSLSASVGDRVTITCRASQGINNYLNWYQQKPGKAPKRLIYNTNNLQTGVPSRFSGSGSGTEFTLTISSLQPEDFATYYCLQHNSFPTFGQGTKLEIKRTVAAPSVFIFPPSDEQLKSGTASVVCLLNNFYPREAKVQWKVDNALQSGNSQESVTEQDSKDSTYSLSSTLTLSKADYEKHKVYACEVTHQGLSSPVTKSFNRGEC
On to B4, for which the binding result in assay [5] was “binds”.

B5: “1+1 IgG scFab, one armed” (anti-EGFR/anti-huCD3) (bispecific antibody)
heavy 1: not shown
heavy 2: B4 heavy 2
light: B4 light
In the case of B5, in assay [6], the binding result is on record as “binds”.

B6: “1+1 IgG scFab” (anti-EGFR/anti-huCD3) (bispecific antibody)
heavy: not shown
chain: DKTHTCPPCPAPEAAGGPSVFLFPPKPKDTLMISRTPEVTCVVVDVSHEDPEVKFNWYVDGVEVHNAKTKPREEQYNSTYRVVSVLTVLHQDWLNGKEYKCKVSNKALGAPIEKTISKAKGQPREPQVCTLPPSRDELTKNQVSLSCAVKGFYPSDIAVEWESNGQPENNYKTTPPVLDSDGSFFLVSKLTVDKSRWQQGNVFSCSVMHEALHNHYTQKSLSLSPGK
light: B4 light
B6: the binding result in assay [7] is reported as “binds”.
